Results: patent US20240262791A1 (University of California, published 2024)
Where two headings read alike, the source gives them in different places.

What was measured:
[1] = biological target: T1, Mutated SARS-CoV-2 (COVID-19) S protein (RBD) E484K (SARS-CoV-2, UniProt P0DTC2 319-537); assay: BLI, biotinylated SR4 on streptavidin sensor, spike RBD in solution, 1:1 fit
[2] = biological target: T2, Mutated SARS-CoV-2 (COVID-19) S protein (RBD) N501Y (SARS-CoV-2, UniProt P0DTC2 319-537); assay: as above
T2 construct: also called N501Y: UK strain

[3] = biological target: T3, Spike RBD, WT (Example 7, Tables 4 and 2) (SARS-CoV-2, UniProt P0DTC2 319-541); assay: as above
T3 construct: also called wildtype spike protein; Spike protein RBD

[4] = biological target: T4, Mutated SARS-CoV-2 (COVID-19) S protein (RBD) F490L (SARS-CoV-2, UniProt P0DTC2 319-537); assay: as above
[5] = biological target: T5, Mutated SARS-CoV-2 (COVID-19) S protein (RBD) N439K (SARS-CoV-2, UniProt P0DTC2 319-537); assay: as above
[6] = biological target: T6, Mutated SARS-CoV-2 (COVID-19) S protein (RBD), South African strain (K417N, E484K, N501Y) (SARS-CoV-2, UniProt P0DTC2 319-537); assay: as above
T6 construct: also called K417N, E484K, N501Y: South Africa strain; B.1.351 lineage

[7] = biological target: T1, Mutated SARS-CoV-2 (COVID-19) S protein …; assay: BLI; KD column of Table 2 repeats Table 4
[8] = biological target: T2, Mutated SARS-CoV-2 (COVID-19) S protein …; assay: BLI; KD column of Table 2 repeats Table 4
[9] = biological target: T3, Spike RBD, WT (Example 7, Tables 4 and …); assay: BLI; KD column of Table 2 repeats Table 4
[10] = biological target: T4, Mutated SARS-CoV-2 (COVID-19) S protein …; assay: BLI; KD column of Table 2 repeats Table 4
[11] = biological target: T5, Mutated SARS-CoV-2 (COVID-19) S protein …; assay: BLI; KD column of Table 2 repeats Table 4
[12] = biological target: T6, Mutated SARS-CoV-2 (COVID-19) S protein …; assay: BLI; KD column of Table 2 repeats Table 4
[13] = biological target: T6, Mutated SARS-CoV-2 (COVID-19) S protein …

B1: Biotinylated SR4 (SR4 (5AzF) reacted with DBCO-biotin) (VHH)
VHH: QVQLVESGGGLVQAGGSLRLSCAASGFPVYSWNMWWYRQAPGKEREWVAAIESHGDSTRYADSVKGRFTISRDNAKNTVYLQMNSLKPEDTAVYYCYVWVGHTYYGQGTQVTVSA
notes: also called SR4 nanobody; biotin labeled SR4
B1 showed a Kd [1] of 31.8 nM, a koff [1] of 0.0034 s⁻¹ and a kon [1] of 107000 M⁻¹ s⁻¹. For the same binder, the Kd [2] was 30.5 nM, the koff [2] was 0.0027 s⁻¹ and the kon [2] was 88600 M⁻¹ s⁻¹. The Kd [3] was 17.9 nM, the koff [3] was 0.00226 s⁻¹ and the kon [3] was 126000 M⁻¹ s⁻¹. It also gave a Kd [4] of 42 nM, a koff [4] of 0.00476 s⁻¹ and a kon [4] of 113000 M⁻¹ s⁻¹. The Kd [5] was 59.3 nM, the koff [5] was 0.00595 s⁻¹ and the kon [5] was 100000 M⁻¹ s⁻¹. It also gave a Kd [6] of 57 nM, a koff [6] of 0.00406 s⁻¹ and a kon [6] of 70800 M⁻¹ s⁻¹. The Kd [7] was 31.8 nM, the Kd [8] was 30.5 nM and the Kd [9] was 17.9 nM. For the same binder, the Kd [10] was 42 nM, the Kd [11] was 59.3 nM and the Kd [12] was 57 nM. For the same binder, the Kd [13] was 57.4 nM.
